{"source": "IntAct's records for PubMed 24895401", "parents": {"B1": {"name": "Ras GTPase-activating-like protein IQG1 (Saccharomyces cerevisiae), Q12280 (parent)", "chain": "MTAYSGSPSKPGNNNSYLNRYVENLGTNVTPPLRPQSSSKINSSLNIASPSHLKTKTSASNSSATILSKKVESSVSKLKPSLPNKLVGKYTVDLSNYSKIELRYYEFLCRVSEVKIWIEAVIEEALPSEIELCVGDSLRNGVFLAKLTQRINPDLTTVIFPAGDKLQFKHTQNINAFFGLVEHVGVPDSFRFELQDLYNKKNIPQVFETLHILISMINKKWPGKTPALTNVSGQISFTKEEIAACKKAWPRIRDFKSLGTNINTAPASPEEPKEKRSGLIKDFNKFERPNIPVEEILITPRKNITDANCSDFSNTPSPYNEAPKMSNLDVVVEKRKFTPIEPSLLGPTPSLEYSPIKNKSLSYYSPTISKYLTYDTEFYTRRSRAREEDLNYYQTFKYSPSHYSPMRRERMTEEQFLEKVVQLQNICRGVNTRFNLYIQKRLLNLFEQDILRFQACLRGNKFRVLSSMYLPIRRAKIDVPHVEAIQSRIKGSRIRYKYDKLKFTLSRFSCTVELLQAYCRSKLLKTTVNTKLNDIEISHYPLTKLQSYMRASYVRKKVMSLNTKLNDERESIMKFSAIIRGNVVRCSEDAILSAVHDVHKENISKLQSLIRGIFTRSCLASIIYSLGKENCNIIQLSACIRGNAVRHKVQSLFAPENNLSETVHDLQGLVRGILVRYTLDLVDDIVEYNNLALFQAFSRGALVRESLDQKSSFYKRNVRSVIMIQSWIRKSLQRSAYLELLDCPNPSLWAVKKFVHLLNGTATIEEVQNQLESCQASLDSENMKKERLLKSIRQQLNINGVLDKFGLLKDKDHELGISDSTIPKSKYQKYEKLFYMLQVDPSYWKLLYLKEPEFVAKNVYMTFGTVNQRMNDRERSYFTRFVCEMLQNAINEAPSIESFLDNRSQFWQTILQDFLRRESPEFFSIIVPVLDYLSDPVVDFESDPYKIYQEIHGFSSPQHCSPVDDASTKNKFIDNLRCLWHAIEMVAEIYTRKVHTIPVEIRYLCTKIFCYAADKNIEEIDSLRAISSILVNVFVSEYLVNREYYGYKDSNVQKNNQKIDILMKSLATVFEIKNFDGFLDPLNQYANEIKPHIKDVLYNVLVDPEYEQEGDRLIYLDMVSPSPKLELLTEKVLEISGKFEEYLNEFPEADILHDILEKNLDNSSFPRSGRVTLELDASAYRFLVSDDKMRKIYDQVKRAFVYMMQIEDVDTNLYDLSISTILPQDEPNFANFLEQNPKIRDDPMIQKLKPLKYFTLKNVTLKKIHELESTGTFCSSDNKLQNFLNDIANTIKNPNYAIDYVTQEIYITKETLTKISEMNHSLDIELSRLKKHVDHTIKDFQKAKDFSPVHKSKFGNFKNAVKKVQGRERSELQGMKFKWNTKQLYERGVLKTIRGEKLAELTVKVFGSSGPKFPDIIFKISTSDGSRFGIQMIDKRKGPDKRYSDDVDSFSFKDLIKTQVEPKIETWKLFHSNVVVNNSQLLHLIVSFFYKRNAL", "partner": "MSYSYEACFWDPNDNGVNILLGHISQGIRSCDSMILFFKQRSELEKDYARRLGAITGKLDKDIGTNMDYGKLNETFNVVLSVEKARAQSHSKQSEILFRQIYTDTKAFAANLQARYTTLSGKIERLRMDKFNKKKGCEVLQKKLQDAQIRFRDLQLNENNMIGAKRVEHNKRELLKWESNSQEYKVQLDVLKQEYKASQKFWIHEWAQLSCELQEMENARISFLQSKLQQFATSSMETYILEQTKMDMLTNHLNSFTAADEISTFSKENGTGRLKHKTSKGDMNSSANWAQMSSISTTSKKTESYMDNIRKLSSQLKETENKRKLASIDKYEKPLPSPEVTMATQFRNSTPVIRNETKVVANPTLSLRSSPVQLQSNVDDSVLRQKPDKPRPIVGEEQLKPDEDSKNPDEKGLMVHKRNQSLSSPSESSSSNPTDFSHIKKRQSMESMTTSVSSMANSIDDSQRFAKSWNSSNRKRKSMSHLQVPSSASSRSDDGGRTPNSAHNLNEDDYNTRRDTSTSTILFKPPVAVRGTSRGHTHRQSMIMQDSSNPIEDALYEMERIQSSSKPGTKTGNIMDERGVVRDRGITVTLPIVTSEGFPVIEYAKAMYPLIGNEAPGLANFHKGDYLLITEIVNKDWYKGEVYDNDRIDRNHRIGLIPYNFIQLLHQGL"}}, "data": [{"variants_of": "B1", "settings": "with cyk2_yeast HOF1, Q05080", "values": [{"variant": "Q695S", "effect of a mutation on the interaction": "disrupting interaction strength"}, {"variant": "Q725S", "effect of a mutation on the interaction": "with no effect"}, {"variant": "Q667S", "effect of a mutation on the interaction": "disrupting interaction strength"}, {"variant": "Q667S;Q695S", "effect of a mutation on the interaction": "disrupting interaction strength"}]}]}
